# Measured values as given in publication PMC9482650, “Quantitative fragmentomics allow affinity mapping of interactomes” (Nature Communications, 2022).
# Changes are numbered by the printed parent chain.
# T1: GRIP1_5, Q9Y3R0
# T1 sequence (Q9Y3R0 568-668, limits assumed, looked up): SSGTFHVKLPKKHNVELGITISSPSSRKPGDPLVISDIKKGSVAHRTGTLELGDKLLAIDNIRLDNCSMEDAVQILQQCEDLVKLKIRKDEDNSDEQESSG
# T2: APBA1_2, Q02410
# T2 sequence (Q02410 742-832, limits assumed, looked up): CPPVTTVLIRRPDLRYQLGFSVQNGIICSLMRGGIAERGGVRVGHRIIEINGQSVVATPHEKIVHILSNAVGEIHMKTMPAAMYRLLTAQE
# T3: NHERF3_3, Q5T2W1
# T3 sequence (Q5T2W1 238-333, limits assumed, looked up): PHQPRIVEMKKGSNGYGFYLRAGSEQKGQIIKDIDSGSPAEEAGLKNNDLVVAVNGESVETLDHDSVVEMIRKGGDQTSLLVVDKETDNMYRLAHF
# T4: FRMPD1, Q5SYB0
# T4 sequence (Q5SYB0 52-145, limits assumed, looked up): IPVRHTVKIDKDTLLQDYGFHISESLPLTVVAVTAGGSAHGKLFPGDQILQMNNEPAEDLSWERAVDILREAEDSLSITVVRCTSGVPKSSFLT
# T5: APBA1_1, Q02410
# T5 sequence (Q02410 651-752, limits assumed, looked up): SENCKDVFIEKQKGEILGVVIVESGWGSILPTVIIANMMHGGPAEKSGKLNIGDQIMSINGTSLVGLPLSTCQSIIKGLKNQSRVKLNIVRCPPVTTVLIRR
# T6: RAPGEF6, Q8TEU7
# T6 sequence (Q8TEU7 525-625, limits assumed, looked up): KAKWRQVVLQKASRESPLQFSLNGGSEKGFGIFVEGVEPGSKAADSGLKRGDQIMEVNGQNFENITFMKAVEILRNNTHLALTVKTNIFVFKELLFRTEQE
# T7: APBA2_2, Q99767
# T7 sequence (Q99767 654-744, limits assumed, looked up): T2 sequence (Q02410 742-832, limits assumed, looked up) with R10K, R15K, P59A, H65Q, I66A, A70S, Y84F, A89G
# T8: GRIP1_4, Q9Y3R0
# T8 sequence (Q9Y3R0 467-571, limits assumed, looked up): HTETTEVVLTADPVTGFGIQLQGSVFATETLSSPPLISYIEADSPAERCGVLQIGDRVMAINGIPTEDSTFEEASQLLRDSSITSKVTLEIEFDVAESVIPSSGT
# T9: LIN7B, Q9HAP6
# T9 sequence (Q9HAP6 88-185, limits assumed, looked up): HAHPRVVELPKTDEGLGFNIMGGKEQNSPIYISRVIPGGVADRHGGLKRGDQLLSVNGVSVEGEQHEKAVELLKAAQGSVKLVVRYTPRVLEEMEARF
# T10: SNTB1, Q13884
# T10 sequence (Q13884 107-205, limits assumed, looked up): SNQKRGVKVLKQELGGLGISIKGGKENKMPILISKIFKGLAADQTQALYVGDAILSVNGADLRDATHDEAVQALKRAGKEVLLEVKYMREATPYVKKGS
# T11: HTRA4, P83105
# T11 sequence (P83105 378-476, limits assumed, looked up): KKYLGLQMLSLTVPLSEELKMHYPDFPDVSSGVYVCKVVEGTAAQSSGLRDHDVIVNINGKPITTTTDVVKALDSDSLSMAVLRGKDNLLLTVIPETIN
# T12: NHERF3_1, Q5T2W1
# T12 sequence (Q5T2W1 4-100, limits assumed, looked up): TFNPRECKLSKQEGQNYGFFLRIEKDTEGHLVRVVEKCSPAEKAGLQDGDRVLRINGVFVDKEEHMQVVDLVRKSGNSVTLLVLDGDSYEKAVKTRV
# Experiments:
# Assay in all cases: holdup assay
# Parameters in all cases: key: below the threshold = too weak to quantify, mostly under pKd 3.1 to 4
# Settings in all cases: plain residues with an end cap or a label only (N-terminal biotin on a linker: ado-ado)
# GORASP2, Q9H8Y8 = target: GORASP2, Q9H8Y8
# DLG2_3, Q15700 = target: DLG2_3, Q15700
# GOPC, Q9HD26 = target: GOPC, Q9HD26
# MAST1, Q9Y2H9 = target: MAST1, Q9Y2H9
# MAGI2_2, Q86UL8 = target: MAGI2_2, Q86UL8
# GRIP1_5, Q9Y3R0 = target: T1, GRIP1_5, Q9Y3R0
# GRIP2_6, Q9C0E4 = target: GRIP2_6, Q9C0E4
# APBA1_2, Q02410 = target: T2, APBA1_2, Q02410
# NHERF3_3, Q5T2W1 = target: T3, NHERF3_3, Q5T2W1
# FRMPD1, Q5SYB0 = target: T4, FRMPD1, Q5SYB0
# GRASP, Q7Z6J2 = target: GRASP, Q7Z6J2
# APBA1_1, Q02410 = target: T5, APBA1_1, Q02410
# RAPGEF6, Q8TEU7 = target: T6, RAPGEF6, Q8TEU7
# APBA2_2, Q99767 = target: T7, APBA2_2, Q99767
# Inadl_6, Q8NI35 = target: Inadl_6, Q8NI35
# GRIP1_4, Q9Y3R0 = target: T8, GRIP1_4, Q9Y3R0
# FRMPD3, Q5JV73 = target: FRMPD3, Q5JV73
# LIN7B, Q9HAP6 = target: T9, LIN7B, Q9HAP6
# LDB3, O75112 = target: LDB3, O75112
# SNTB1, Q13884 = target: T10, SNTB1, Q13884
# PARD3_3, Q8TEW0 = target: PARD3_3, Q8TEW0
# DLG1_1, Q12959 = target: DLG1_1, Q12959
# HTRA4, P83105 = target: T11, HTRA4, P83105
# NHERF3_1, Q5T2W1 = target: T12, NHERF3_1, Q5T2W1
# DLG4_1, P78352 = target: DLG4_1, P78352
# LAP2, Q96RT1 = target: LAP2, Q96RT1
# Sequence of LAP2, Q96RT1 (Q96RT1 other isoform, or with tags, fused parts or gaps): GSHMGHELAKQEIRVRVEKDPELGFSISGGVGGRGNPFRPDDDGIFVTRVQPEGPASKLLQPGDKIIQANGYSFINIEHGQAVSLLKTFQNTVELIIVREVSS
# Sequence of PARD3_3, Q8TEW0 (Q8TEW0 582-685): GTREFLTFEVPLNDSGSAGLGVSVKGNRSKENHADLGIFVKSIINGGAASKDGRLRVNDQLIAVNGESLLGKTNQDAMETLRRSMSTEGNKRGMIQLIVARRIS
# Sequence of Inadl_6, Q8NI35 (Q8NI35 1058-1167): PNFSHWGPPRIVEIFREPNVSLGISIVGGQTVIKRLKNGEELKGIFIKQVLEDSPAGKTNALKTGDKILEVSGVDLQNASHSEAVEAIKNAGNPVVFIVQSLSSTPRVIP
# Sequence of LDB3, O75112 (O75112 1-94): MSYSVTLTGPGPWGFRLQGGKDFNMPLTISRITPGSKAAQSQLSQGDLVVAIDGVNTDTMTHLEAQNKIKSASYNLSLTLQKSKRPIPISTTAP
# Sequence of GRIP2_6, Q9C0E4 (Q9C0E4 648-740): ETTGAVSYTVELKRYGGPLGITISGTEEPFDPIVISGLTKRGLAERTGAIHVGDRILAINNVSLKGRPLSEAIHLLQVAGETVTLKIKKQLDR
# Sequence of FRMPD3, Q5JV73 (Q5JV73 12-100): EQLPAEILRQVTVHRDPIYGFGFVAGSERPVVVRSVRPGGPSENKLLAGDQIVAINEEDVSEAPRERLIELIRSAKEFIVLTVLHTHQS
# Sequence of MAGI2_2, Q86UL8 (Q86UL8 410-522): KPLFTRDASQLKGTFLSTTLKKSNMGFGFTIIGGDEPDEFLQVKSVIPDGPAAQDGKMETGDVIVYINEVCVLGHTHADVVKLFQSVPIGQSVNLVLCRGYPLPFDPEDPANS
# Sequence of GRASP, Q7Z6J2 (Q7Z6J2 96-193): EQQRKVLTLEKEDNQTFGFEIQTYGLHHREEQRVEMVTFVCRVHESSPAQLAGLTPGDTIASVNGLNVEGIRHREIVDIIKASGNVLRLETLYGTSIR
# Sequence of DLG4_1, P78352 (P78352 62-152): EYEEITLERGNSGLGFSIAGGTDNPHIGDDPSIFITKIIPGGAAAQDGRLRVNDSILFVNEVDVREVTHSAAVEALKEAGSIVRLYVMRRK
# Sequence of MAST1, Q9Y2H9 (Q9Y2H9 962-1065): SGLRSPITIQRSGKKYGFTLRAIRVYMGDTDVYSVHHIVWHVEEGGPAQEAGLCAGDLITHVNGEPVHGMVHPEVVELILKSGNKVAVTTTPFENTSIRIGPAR
"pKd (GORASP2, Q9H8Y8)","pKd (DLG2_3, Q15700)","pKd (GOPC, Q9HD26)","pKd (MAST1, Q9Y2H9)","pKd (MAGI2_2, Q86UL8)","pKd (GRIP1_5, Q9Y3R0)","pKd (GRIP2_6, Q9C0E4)","pKd (APBA1_2, Q02410)","pKd (NHERF3_3, Q5T2W1)","pKd (FRMPD1, Q5SYB0)","pKd (GRASP, Q7Z6J2)","pKd (APBA1_1, Q02410)","pKd (RAPGEF6, Q8TEU7)","pKd (APBA2_2, Q99767)","pKd (Inadl_6, Q8NI35)","pKd (GRIP1_4, Q9Y3R0)","pKd (FRMPD3, Q5JV73)","pKd (LIN7B, Q9HAP6)","pKd (LDB3, O75112)","pKd (SNTB1, Q13884)",Binder,other results
below the threshold,below the threshold,3.82,below the threshold,below the threshold,below the threshold,below the threshold,3.63,below the threshold,below the threshold,3.84,below the threshold,below the threshold,below the threshold,below the threshold,below the threshold,below the threshold,below the threshold,below the threshold,4.62,"EWTDERQSKV [GAB3, Q8WWW8]","pKd (PARD3_3, Q8TEW0): below the threshold; pKd (DLG1_1, Q12959): 3.48; pKd (HTRA4, P83105): below the threshold; pKd (NHERF3_1, Q5T2W1): 4.36; pKd (DLG4_1, P78352): 3.79; pKd (LAP2, Q96RT1): 3.56"
below the threshold,4,3.57,4.76,3.89,below the threshold,below the threshold,3.58,below the threshold,below the threshold,4.51,below the threshold,below the threshold,below the threshold,below the threshold,below the threshold,below the threshold,below the threshold,below the threshold,3.99,"NLQEHSTTSV [RSBN1, Q5VWQ0]","pKd (PARD3_3, Q8TEW0): below the threshold; pKd (DLG1_1, Q12959): 3.5; pKd (HTRA4, P83105): below the threshold; pKd (NHERF3_1, Q5T2W1): below the threshold; pKd (DLG4_1, P78352): 3.84; pKd (LAP2, Q96RT1): 3.72"
3.9,4.5,3.78,4.68,5.37,below the threshold,below the threshold,3.57,below the threshold,below the threshold,3.72,below the threshold,below the threshold,below the threshold,below the threshold,below the threshold,below the threshold,3.51,below the threshold,4.55,"TGLWKSETTV [ADGRA2, Q96PE1]","pKd (PARD3_3, Q8TEW0): below the threshold; pKd (DLG1_1, Q12959): 4.85; pKd (HTRA4, P83105): below the threshold; pKd (NHERF3_1, Q5T2W1): below the threshold; pKd (DLG4_1, P78352): 4.94; pKd (LAP2, Q96RT1): 3.7"
below the threshold,below the threshold,below the threshold,below the threshold,below the threshold,below the threshold,3.93,3.99,below the threshold,below the threshold,below the threshold,below the threshold,below the threshold,below the threshold,below the threshold,below the threshold,below the threshold,below the threshold,below the threshold,below the threshold,"HLRQQGSVEV [EPHB6, O15197]","pKd (PARD3_3, Q8TEW0): below the threshold; pKd (DLG1_1, Q12959): below the threshold; pKd (HTRA4, P83105): 4.39; pKd (NHERF3_1, Q5T2W1): below the threshold; pKd (DLG4_1, P78352): 3.5; pKd (LAP2, Q96RT1): below the threshold"
below the threshold,3.75,below the threshold,4.53,below the threshold,below the threshold,below the threshold,below the threshold,below the threshold,below the threshold,3.98,below the threshold,below the threshold,below the threshold,below the threshold,below the threshold,below the threshold,3.61,below the threshold,below the threshold,"FTLPAESSEI [PLEKHG7, Q6ZR37]","pKd (PARD3_3, Q8TEW0): below the threshold; pKd (DLG1_1, Q12959): below the threshold; pKd (HTRA4, P83105): 3.5; pKd (NHERF3_1, Q5T2W1): 3.52; pKd (DLG4_1, P78352): below the threshold; pKd (LAP2, Q96RT1): below the threshold"
